test: soluble on expression in E. coli; label from the status in PepcDB or PDB records

Row | Sequence | soluble on expression in E. coli
1 | MRWKRTLQLLDVHCEGEIGRVVTGGAPKIPGNTVAEQLHWMNTDPQGEALRRFLTLEPRGTPMGSVDLLLPPKHPDAHAAFVILQPDQAHASSGSNSICATTALLESGMVEMQEPETVIILETAAGLVKATATCRDGRCEKVKLTMVPSFVHELDVSIDTPEWGRVTMDISYGGIFYALVDVRQIGLTIEKANAAKLVAAGMTLKDLVNREMTVVHPEIPAISGVAYVMFRDVDADGSIRTCTTMWPGRADRSPCGTGNSANLATLYARGKVKVGDEYKSRSIIGSEFDVGLSAVTEVAGRPAVIPTIAGRGFTFGLHQVGLDPFDPLGDGFAMTDVWGPEAGNILEHHHHHH | soluble
2 | MSLLNEENNFYNVDLLDLLKDSNEAVLPYKRIRFRRNQKILTEGAETTYFYIIEDGVVSMSKNTCKEDSIISFLGKQDSIGPLTLLGGAKSPANYTSISEVSVYQFERKYVLNKLLSSPDVFWQMNSLMQSMVSPMLEREAYVNLPSSEKVLAGLIACGERFGRIESDGSCLIPYYFTQKILGNYLNLARAYVATNLRKLEEDGVISLSPKPWRVKNFDVHRQKLKDNYKPYI | not soluble
3 | DERLELMESVDVGQTPSNVVYEENKLELLHYDAEAAGIEVPDEEKEDVPILIVYALINRPYILDLQEERSVVRRLLEAGHDVYLIDWNEPSRLDQHLTLDDYVNRYMDNCVDVVRDRSGQDAINILGYCMGGTMSVMYTALHKEKVNTLGLMAAGLCFDHTGGVLEEWGSEEYYSPQDVVDTFGNVPADMLDIGFALMDPVENYVTKYIRFAENMENEGFVENFGRMEQWLGDGIDVAGEAYVQFLEDVYQDNKLYKNELELDGKHVDLDNIDMPVLQLMGEYDHLIPPEASKPFNDVIASDDTRTIEFSTGHIGLSVSSSTHADLWPEVAEWYSER | not soluble
4 | MSAQTDPGYFFMPNHIILIGASEQPYSLGERVLSNLLSTPFQGKITPVNPRHHTIAGLPAYTSLNKIPGNADLIIAVTLPDSYDTLFKTCRKKQLRHIILIQDWDNLSAAELHTAETAIRKHHGNGLNITACTTAGIQLPSLGLNISTQDGYAAGHTAILTGNAAVSRQIDNILNKLRQGTSRHISLHPGISPITSADWLNRFGHSLHTKTAVLHHNPEEDQRKLFSAIRQFTRHTPLILHITCRTTETDRAVLHCLARHCNFLVSFNADDLEAALRAQLSDLPPLSRLDILSDTPAEWLHAHAPKNLTLHFPNLPHHIRNGHLTGTPTPSICHDIASRQLAHPDTQAVLTILSPSGHEDYKKTARALIRLSEQTAKPLLVSSPFSDGITHFDTPTQAIRTLSYRNTAAALKQAQLDIAPPQPCRLKTPQPQNIKKALAAANPSLLAEALHLPPYRHTTHNAVQFQFDSHPLYGDILTARCNGQTTAVLPPFTTLDSRHLARFAELDGTQTLDQFLHTLTVIPEYRQHILGITLNLNGGQYSSDFLLKTPETHDTPKRKNTGKAAQTLEHAAAKMQSAAAYLKHKNPTAAEFLRHTSEAAAELLGSKTETGAAVPNVLAPYPAAYPKTLSLRNNTTVTITPILPEDAEAKQQFVRSLGPEARYTRFMTHTNELPAATLARLCNPDYHCEAAWTAKDADSNIVAVVRHSRLNRNECEFGITLAEHMRGSGLAQKMMELIIQTAAQQGYRTMSADILKTNTPMIKLAEKSGFTLKESDTEKNLYRAYLNLAADKTTEKTNKNLRTDHKIT | not soluble
5 | MKSSKASEEDLAAATEKMQSMKGKKSQAAAALEAEQAKAEKRLSCLLKARTKLSFRVIRDGIKCHGGIHLKKQSEKAELDISVTNTAINNLPSDADIVITHKDLTDRAKAKLPNATHISVDNFLNSPKYDELIEKLKSNLIEREYCHASTRKGNIKLNQTVSSKEEAIKLAGQTLIDNGYVTEDYISKMFDREETSSTFMGNFIAIPHGTEEAKSEVLHSGISIIQIPEGVEYGEGNTAKVVFGIAGKNNEHLDIL | soluble
6 | MGSDKIHHHHHHMNIIKSFNSTIDYLETVLDDEIDEKKVTRISGYSYSMFSRLFSILTEMTLSEYLRSRRLTEAAIILRDTDEKIIDVAFKFGYESSDSFGTAFKNFHGFTPSEVRIGKPFKLVSRVQLALSVRGGRSMNIRIQKKKAFTVAGVNQQNINSSICASLWQKLFSKVSHEEMLNLGTGEVVGVCHDILSLDNHDVLDSNTINYMAGYIVTDVDKARSMGLDILEIGETEYAVVELTGSVPECIHNGWKYAMEVFFPEHGYVHSGKPDFEYYYEGDMYSKDYKMELWIPVCKS | not soluble
7 | MKIAIGSDHAGFPLKEKIKEFLKGEGHKVIDVGTHAQESTHYPIYAKEVVRAIRSGKAERGILICGTGIGMSITANKFRGIRAALCTNEYMARMSRLHNDANVLCLGERVLGVELALSIVKVWLETPFEGGRHLKRLEIISEIEDEICGENIPR | soluble
8 | MSLQKFSDEQRSQIETIIKEYLVSHPEVLEEASEELGKRQAAAQAEKHQQAIKDNADIIYNSPRGVTVGNKNGDVTMVEFFDYNCGYCKRAMTDMMELMKDDPNLKVVLKEFPVLGPPSVEAAQVAIAVRMQDPTGKKYLDFHQKLLGGRGQADKARALAAAKDAGLDPAKIEKDMNSPEVRATIEESFKLAESMGMNGTPSYVIGKQVVVGAVGLDTLRQKINTARCGKDKCEGHHHHHH | soluble
9 | QVQLQQSGPELVRPGVSVKISCKGSGYTFIDEALHWVKQSHAESLEWIGVIRPYSGETNYNQKFKDKATMTVDISSSTAYLELARLTSEDSAIYYCARDWERGDFFDYWGQGTLVTVSSASTKGPSVFPLAPSSKSTSGGTAALGCLVKDYFPEPVTVSWNSGALTSGVHTFPAVLQSSGLYSLSSVVTVPSSSLGTQTYICNVNHKPSNTKVDKKVEPKSCD | soluble
10 | MSLNPSGKYQVKILGIEDYQALTACQSACPLGTDTKRYVRAITEGDYEKAFLIARQTNPLVSVCSRVCTAPCEKSCRKGEQGHPVDIRALKRFACDKHGVTSPRAVAGRLEEISRQNGGVGDRTGNHILTMAAVQKAGAAATSRKPAPRVAIIGSGPTGLSAAHDLALLGYGVTIFEAAPYAGGMLRTGIPAFRLPKDVLQQEIDAILNLGVELKLNSPIGEDLTLADLKAQGYESVFITIGLQDPLRILNIEGTDLAGIYSGVEYVRDHEKIRLGKRCLVIGGGGVAIDCAQHAVRQGAEQVMIACLESWETMPASLTEREDAQEEGIVFHPALGPRRFMGHNGHVARAEFLQVSSVFDSEGRFAPTFVPDSTTTLEVDSVILAVGQASTAPSLAGLAGLDLTPNGLIKAAEDMSTNLPGVFAGGDVRWRFTRNATDAIADGQKAARAIHGYLSGHTPQVIRKGFMRPVSPDFENTRCDTIAPVPIPKRDAGERVRTKEEITIGFGEAEAREQAARCRRCNIQTVFERSRCLRCGTCVDTCVNGALRIVRLADIQGDEDVAKLTDALKKSAQTRSKAMTAIIKDESRCASCGMCARRCPGGAITMAEFYCQEEWEEGHHHHHH | soluble
11 | MKEKIPFYNEKEFHDMVKKTKKGTFSGWYIIDKDNKSVEFSGSFNRQFKLNKPVIPVNTEYVTRKEFNEYKVSNDQRLTKIETTLAAQGEQINKLTQTVEKQGEQINQLVQVVLLHGEQINKLTQTVEKQGEQIKELQVEQKAQGEQIKAQGKQIKAQGKTLKSILQALGGINKRLDKIDPPKLEHHHHHH | not soluble
12 | MAHHHHHHMPTNAAQALEKLVPGRLLQLADNGTPTIVTPLGNEGSLNALIHAYKGKGYLPYFTHAVKAAQRSLVNELRAAGVEVPNGAEASHLEGVCGVHCRDEASCSHIIPDEHITATLYGEDTDDTRMIVACDPIQTKLRDDCVECFPRVNKVSGWEELVVRVHLFYPNTVPCMSVQDRRARLVTQKQFVPKNARTLQGYHVFHYAKRGSSVRTPHCESMFPYTPKTTESKGFTRENRCTAITVESVFVRDPARQQRPFYAEDAGQARVYFSYLRVDAFVTDDELVEHFPLESMDVAAMPAFTDNRYVEKYHVLVRLYLLAHDQGWTATQPHGCPHPLGDRVGLPVLFRSCATEVIVPDACSHDSQLLLRQRLLPDVEMQVTRFCFRRIVSEVLRQRVVAAAADTPECCIPVVCYMPYSDRVPVFTDKQVGVLARLYPHLGIRRPTSRREWADLSRTLYQHCISLFDILAAVGVPLRDAHGAVIDTDAYVPYTADMADDYFLVIANRPLRDYTCVTNQRWLCEQLLLPDHRPPISARAFAAWVRYWNAMAQLKHELEKQVTLDTVSAHLGLRLPAGKTGQRAACLVNGLVTDAKGGLIFPKLGGRRFRDREHVGALLPGAPVLYSFWVDGKLQFTYVRMPMRFVRGLPLKQVNGQRPVQSVIAAGGAPANRGDGTQRGGGQVGEERRANVAIHA | not soluble

— the DeepSol protein solubility set
